Values quoted from earlier work as cited in paper PMC130215.

Target: LIR-1 (ILT2) (Homo sapiens) (UniProt Q8NHL6)
Sequence of UniProt Q8NHL6 (Q8NHL6 24-461): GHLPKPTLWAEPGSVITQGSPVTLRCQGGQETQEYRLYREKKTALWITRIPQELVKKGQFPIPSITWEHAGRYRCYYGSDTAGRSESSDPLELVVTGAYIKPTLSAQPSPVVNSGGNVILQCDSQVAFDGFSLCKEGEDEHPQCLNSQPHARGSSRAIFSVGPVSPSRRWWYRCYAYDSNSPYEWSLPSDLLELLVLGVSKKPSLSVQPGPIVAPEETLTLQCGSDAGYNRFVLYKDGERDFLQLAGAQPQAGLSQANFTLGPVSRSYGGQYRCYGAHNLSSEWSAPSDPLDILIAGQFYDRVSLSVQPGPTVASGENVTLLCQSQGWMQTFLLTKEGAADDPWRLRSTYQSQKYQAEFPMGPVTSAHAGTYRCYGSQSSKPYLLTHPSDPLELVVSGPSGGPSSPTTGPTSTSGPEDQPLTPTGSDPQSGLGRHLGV

UL18 (from UniProt P08560)
Kd: 2 nM
